Columns and labels:
[1] = target: T1, U2B" (Homo sapiens, UniProt P08579 1-225); assay: filter binding
[2] = target: T1, U2B"; assay: filter binding; remark: listed apart in the source

T1 sequence (P08579 whole entry): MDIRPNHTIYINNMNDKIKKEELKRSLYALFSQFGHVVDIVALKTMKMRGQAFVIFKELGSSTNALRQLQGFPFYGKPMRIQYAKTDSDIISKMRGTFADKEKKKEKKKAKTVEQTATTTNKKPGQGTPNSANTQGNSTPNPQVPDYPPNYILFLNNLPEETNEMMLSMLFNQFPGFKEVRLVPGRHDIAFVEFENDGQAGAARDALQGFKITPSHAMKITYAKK

Binder	Kd [1]	binding result [2]
GGACCUAUUGCAGUACCUGGUCC (structured_RNA) [hSLIV 6 bp stem]	2 nM	–
GGCCGUAUUGCAGUACCGCGGCC (structured_RNA, 2-aminopurine at position 15 (loop A9), written as A) [dSLIV 2AP9]	–	binds
GGGCCCGGUAUUGCAGUACCGCCGGGUCC (structured_RNA) [dSLIV]	2 nM	–
GGGCUGCCAUUGCACCUCGGCGGUCC (structured_RNA) [hSLII]	2.1 nM	–
GGCCGUAUUGCAGUACCUCGGCC (structured_RNA, 2-aminopurine at position 15 (loop A9), written as A) [hSLIV 2AP9]	2 nM	–
GGGCCCGGUAUUGCAGUACCUCCGGGUCC (structured_RNA) [hSLIV 9 bp stem]	1 nM	–

Source: publication PMC3166965
